Experimental data from article PMC8571082, “Structural and thermodynamical insights into the binding and inhibition of FIH-1 by the N-terminal disordered region of Mint3” (The Journal of Biological Chemistry, 2021).
Substitutions are numbered along the chain they refer to. Each block holds one binder with its values, some of them ahead of it.

What was measured:
Details in all cases: both partners purified
[1] = target: T1, factor inhibiting HIF-1 (FIH-1) (human, UniProt Q9NWT6 1-349); test: ITC; Mint3 construct in the syringe (150 μM, 25 injections of 1.5 μl) titrated into 30 μM FIH-1 in the cell; 25 °C; 35 mM Na-phosphate pH 7.5, 300 mM NaCl, 500 μM αKG; single set of sites model
T1 construct: N-terminal His6 tag and TEV site (ENLYFQ) cleaved with TEV protease; Dimer by SEC and SEC-MALS (about 80 kDa); also called FIH-1 WT; source: E. coli BL21 (DE3), purified (Ni-NTA, TEV cleavage, SEC); not shown: His6, N-terminal, cleaved

[2] = target: T2, factor inhibiting HIF-1 (FIH-1), full-length (human, UniProt Q9NWT6 1-349); test: ITC; MicroCal iTC200, 25 °C; 150 μM Mint3 in the syringe, 30 μM FIH-1 in the cell, 25 injections of 1.5 μl; 35 mM Na-phosphate pH 7.5, 300 mM NaCl, 500 μM αKG; single set of sites model; for Figure 4 also in the absence of αKG and/or with EDTA
T2 construct: Dimer by SEC and SEC-MALS; The TEV site ENLYFQ lay between the His6 tag and FIH-1; also called FIH-1 WT; source: E. coli BL21 (DE3), purified (Ni-NTA, TEV cleavage, SEC); not shown: His6, N-terminal, cleaved

FIH-1 E250A = target: T3, FIH-1 E250A (human, UniProt Q9NWT6 1-349, Glu250 replaced with Ala); test: as above
T3 construct: also called Glu250 replaced with Ala (negative control); source: E. coli BL21 (DE3), purified (mutants prepared as FIH-1); not shown: His6, N-terminal, cleaved

FIH-1 D248A = target: T4, FIH-1 D248A (human, UniProt Q9NWT6 1-349, Asp248 replaced with Ala); test: as above
T4 construct: also called Asp248 replaced with Ala (negative control); source: E. coli BL21 (DE3), purified (mutants prepared as FIH-1); not shown: His6, N-terminal, cleaved

FIH-1 Y71A = target: T5, FIH-1 Y71A (human, UniProt Q9NWT6 1-349, Tyr71 replaced with Ala); test: as above
T5 construct: also called Tyr71 replaced with Ala; source: E. coli BL21 (DE3), purified (mutants prepared as FIH-1); not shown: His6, N-terminal, cleaved

FIH-1 E79A = target: T6, FIH-1 E79A (human, UniProt Q9NWT6 1-349, Glu79 replaced with Ala); test: as above
T6 construct: also called Glu79 replaced with Ala; source: E. coli BL21 (DE3), purified (mutants prepared as FIH-1); not shown: His6, N-terminal, cleaved

FIH-1 K75A = target: T7, FIH-1 K75A (human, UniProt Q9NWT6 1-349, Lys75 replaced with Ala); test: as above
T7 construct: also called Lys75 replaced with Ala; source: E. coli BL21 (DE3), purified (mutants prepared as FIH-1); not shown: His6, N-terminal, cleaved

FIH-1 E29A = target: T8, FIH-1 E29A (human, UniProt Q9NWT6 1-349, Glu29 replaced with Ala); test: as above
T8 construct: also called Glu29 replaced with Ala (negative control); source: E. coli BL21 (DE3), purified (mutants prepared as FIH-1); not shown: His6, N-terminal, cleaved

FIH-1 N171A = target: T9, FIH-1 N171A (human, UniProt Q9NWT6 1-349, Asn171 replaced with Ala); test: as above
T9 construct: also called Asn171 replaced with Ala; source: E. coli BL21 (DE3), purified (mutants prepared as FIH-1); not shown: His6, N-terminal, cleaved
T9 sequence (Q9NWT6 whole entry N171A): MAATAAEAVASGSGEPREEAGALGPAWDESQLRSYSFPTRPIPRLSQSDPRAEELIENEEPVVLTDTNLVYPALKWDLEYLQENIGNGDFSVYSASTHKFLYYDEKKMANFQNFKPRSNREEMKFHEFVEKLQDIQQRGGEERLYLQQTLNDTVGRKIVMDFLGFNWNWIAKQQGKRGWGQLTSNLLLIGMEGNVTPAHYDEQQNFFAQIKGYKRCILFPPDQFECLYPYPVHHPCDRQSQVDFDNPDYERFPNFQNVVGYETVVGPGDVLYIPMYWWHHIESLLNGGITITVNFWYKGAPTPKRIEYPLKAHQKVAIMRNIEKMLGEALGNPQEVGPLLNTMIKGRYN

T2 sequence (Q9NWT6 whole entry): as the sequence (Q9NWT6 whole entry N171A) above, with A171N counted along it
T1 sequence (Q9NWT6 whole entry): as the sequence (Q9NWT6 whole entry N171A) above, with A171N counted along it
T3 sequence (Q9NWT6 whole entry E250A): as the sequence (Q9NWT6 whole entry N171A) above, with A171N, E250A counted along it
T7 sequence (Q9NWT6 whole entry K75A): as the sequence (Q9NWT6 whole entry N171A) above, with K75A, A171N counted along it
T8 sequence (Q9NWT6 whole entry E29A): as the sequence (Q9NWT6 whole entry N171A) above, with E29A, A171N counted along it
T6 sequence (Q9NWT6 whole entry E79A): as the sequence (Q9NWT6 whole entry N171A) above, with E79A, A171N counted along it
T4 sequence (Q9NWT6 whole entry D248A): as the sequence (Q9NWT6 whole entry N171A) above, with A171N, D248A counted along it
T5 sequence (Q9NWT6 whole entry Y71A): as the sequence (Q9NWT6 whole entry N171A) above, with Y71A, A171N counted along it

B1: Mint3 fragment (1-92) (domain or fragment, human, UniProt O96018 1-92, looked up)
chain: MDFPTISRSPSGPPAMDLEGPRDILVPSEDLTPDSQWDPMPGGPGSLSRMELDESSLQELVQQFEALPGDLVGPSPGGAPCPLHIATGHGLA
notes: human Mint3 (X11gamma/APBA3), residues 1-92; source: E. coli BL21 (DE3), purified (mutants/fragments of Mint3 prepared as Mint3NT)
Kd [1]: 9000 ± 900 nM

B4: Mint3NT, N-terminal fragment (1–214) of Mint3 (domain or fragment, human, UniProt O96018 1-214, looked up)
chain: MDFPTISRSPSGPPAMDLEGPRDILVPSEDLTPDSQWDPMPGGPGSLSRMELDESSLQELVQQFEALPGDLVGPSPGGAPCPLHIATGHGLASQEIADAHGLLSAEAGRDDLLGLLHCEECPPSQTGPEEPLEPAPRLLQPPEDPDEDSDSPEWVEGASAEQEGSRSSSSSPEPWLETVPLVTPEEPPAGAQSPETLASYPAPQEVPGPCDHED
notes: Mint3 (X11γ/APBA3), human, N-terminal fragment, residues 1-214; Uniformly 15N-labelled (M9 medium) for the NMR titration; No cleavage site is told for the C-terminal His6 tag; also called Mint3(1–214); 15N-Mint3NT; source: E. coli BL21 (DE3), purified (Ni-NTA, SEC; monomer fraction collected)
binding result (FIH-1 E250A): binds | binding result (FIH-1 D248A): binds | binding result (FIH-1 Y71A): binds | binding result (FIH-1 E79A): binds | binding result (FIH-1 K75A): binds | binding result (FIH-1 E29A): binds | dH [2]: -32.2 ± 0.7 kcal/mol | stoichiometry N [2]: 0.48 ± 0.02 | binding result (FIH-1 N171A): binds

B5: Mint3NTmut, Mint3NT (1–214) with the mutations … → AAASAAAGRD (domain or fragment, human, UniProt O96018 1-214, looked up)
chain: B4 chain with G101A, L102A, L103A, E106A
notes: source: E. coli BL21 (DE3), purified (mutants/fragments prepared as Mint3NT)
Kd [2]: 1310 nM | dH [2]: -13.9 kcal/mol | stoichiometry N [2]: ~0.5

B7: short peptide of Mint3 (93–117) (peptide, UniProt O96018 93-117, looked up)
chain: SQEIADAHGLLSAEAGRDDLLGLLH
notes: The methods say only that mutants/fragments of Mint3 were prepared as Mint3NT (E. coli, C-terminal His6); the results call this a peptide and speak of synthesis for the peptide 78-88, so it may be synthetic
Kd [2]: 3000 ± 600 nM | stoichiometry N [2]: ~0.5

Further lines, results first:

stoichiometry N [2]: ~0.5
B2: Mint3 fragment (1–92) (domain or fragment, human, UniProt O96018 1-92, looked up)
chain: B1 chain
notes: as for B5

Kd [1]: 520 ± 20 nM
B3: Mint3NT, N-terminal fragment (1-214) of Mint3 (domain or fragment, human, UniProt O96018 1-214, looked up)
chain: B4 chain
notes: human Mint3 (X11gamma/APBA3), residues 1-214; also called 1-214 (NT); Mint3(1-214); source: E. coli BL21 (DE3), purified (Ni-NTA, SEC; monomer fraction)

Kd [2]: 650 ± 70 nM | dH relative to Mint3NT [2]: ~0.5 | stoichiometry N [2]: ~0.5
B6: Mint3(1–117), N-terminal half of Mint3NT (domain or fragment, human, UniProt O96018 1-117, looked up)
chain: MDFPTISRSPSGPPAMDLEGPRDILVPSEDLTPDSQWDPMPGGPGSLSRMELDESSLQELVQQFEALPGDLVGPSPGGAPCPLHIATGHGLASQEIADAHGLLSAEAGRDDLLGLLH
notes: as for B5
